According to paper PMC10781284, “Fluorescence Super-Resolution Imaging Chip for Gene Silencing Exosomes”:

Biological target: PD-L1 (on HeLa exosomes) (human, UniProt Q9NZQ7 19-290)
Experiment: fluorescence colocalization on captured exosomes (AF647/PKH26); 1 nM aptamer; exosomes captured by CD63 aptamer; microfluidic channel, PBS (10 mM, pH 7.4) washes, 2% BSA block at room temperature; exosomes in culture medium; binding buffer of the aptamer not stated
Settings: protein: native; label: 5' Alexa Fluor 647

Chain of PD-L1 (on HeLa exosomes) (Q9NZQ7 19-290): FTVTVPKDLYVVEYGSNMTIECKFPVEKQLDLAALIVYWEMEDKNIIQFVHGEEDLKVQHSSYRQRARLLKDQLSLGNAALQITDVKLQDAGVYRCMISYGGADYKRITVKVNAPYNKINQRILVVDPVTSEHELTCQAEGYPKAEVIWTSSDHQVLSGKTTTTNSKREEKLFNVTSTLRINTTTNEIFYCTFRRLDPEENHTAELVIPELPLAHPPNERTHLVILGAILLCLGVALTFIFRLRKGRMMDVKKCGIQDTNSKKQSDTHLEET

TACAGGTTCTGGGGGGTGGGTGGGGAACCTGTT (ssDNA) [PD-L1 aptamer (PD-L1 adaptor strand)]: binds.
